# Patent publication US9453838B2, “Methods for making microarrays and their uses” (Asociación Centro De Investigación Cooperative En Bioma …, priority 2013, dated 2016)
# T1: GNA (Galanthus nivalis agglutinin) (Galanthus nivalis, UniProt P30617)
# T1 sequence (P30617 20-128): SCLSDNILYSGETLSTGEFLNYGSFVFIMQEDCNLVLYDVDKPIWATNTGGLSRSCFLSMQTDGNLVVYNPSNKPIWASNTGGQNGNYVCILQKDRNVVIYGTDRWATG
# B1: RNAse B: RNAse B glycoprotein, glycoforms presenting mannose oligosaccharides M5-M9 (protein, UniProt P61823 27-150, looked up)
# Ribonuclease pancreatic: KETAAAKFERQHMDSSTSAASSSNYCNQMMKSRNLTKDRCKPVNTFVHESLADVQAVCSQKNVACKNGQTNCYQSYSTMSITDCRETGSSKYPNCAYKTTQANKHIIVACEGNPYVPVHFDASV
# modifications: glycoform B
# Legend:
# Settings in all cases: RNAse-B 50 μg/mL in PBS
# [1] = biological target: T1, GNA (Galanthus nivalis agglutinin); test: Lectin array, RNAse B binding by fluorescence scanning and MALDI-Tof MS
# Experimental: (§1) Slides were stored at −20° C.
# [2] = test system: WGA (Wheat Germ Agglutinin); test: as above
# Experimental: as §1
# ConA = ConA (Canavalia ensiformis, UniProt P02866)
# Experimental: 0.4-0.3 mg/mL (glyco)protein solutions (Concanavalin A, ConA; WGA; and Galanthus nivalis agglutinin, GNA, lectins and RNAse B glycoprotein) were prepared in PBS, and 50 drops (˜0.3 nL per drop) were deposited onto the surface with a dot pitch of 750×750 μm. Slides were then incubated overnight at room temperature in 90% humidity, washed with PBS, quenched with ethanolamine and dried by purging Ar. Slides were stored at −20° C.
# A lectin array of ConA, GNA and WGA was printed onto slides as described above, and Cy3-labelled or unlabelled RNAse-B (50 μg/mL in PBS) was added to wells. RNAse B binding and lectin modifications were analyzed by fluorescence imaging and MALDI-Tof MS (FIG. 12).
molecule,measurement,setting,value
B1,binding to GNA,[1],binding
same,interaction with WGA,[2],no interaction
same,binding to ConA,ConA,binding
